Key:
[1] = molecular target: T1, phosphoribosyl-ATP pyrophosphohydrolase/phosphoribosyl-AMP cyclohydrolase (AbHisIE) (Acinetobacter baumannii, UniProt V5VH18); test: initial rates of ProFAR formation from PRATP at […] nm, dose-response with purified AbHisIE; format: biochemical
T1 construct: gene hisIE; full-length AbHisIE (A. baumannii strain ATCC17978), recombinant
T1 sequence (V5VH18 1-257): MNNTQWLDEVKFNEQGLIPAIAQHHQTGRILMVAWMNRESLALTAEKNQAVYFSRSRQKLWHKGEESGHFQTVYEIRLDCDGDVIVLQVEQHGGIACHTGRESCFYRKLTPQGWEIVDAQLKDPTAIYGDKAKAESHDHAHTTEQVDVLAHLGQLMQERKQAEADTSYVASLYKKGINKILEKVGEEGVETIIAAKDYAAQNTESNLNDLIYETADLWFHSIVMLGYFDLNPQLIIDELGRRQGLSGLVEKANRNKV

[2] = substrate: N=c1c2ncn([C@@H]3O[C@H](COP(=O)(O)O)[C@@H](O)[C@H]3O)c2ncn1[C@@H]1O[C@H](COP(=O)(O)O)[C@@H](O)[C@H]1O; test: purified protein; format: biochemical, Acinetobacter baumannii; conditions: Zn2+ (HisI-like domain) cyclohydrolase active site in the N-terminal HisI-like domain
[3] = substrate: N=c1c2ncn([C@@H]3O[C@H](COP(=O)(O)OP(=O)(O)OP(=O)(O)O)[C@@H](O)[C@H]3O)c2ncn1[C@@H]1O[C@H](COP(=O)(O)O)[C@@H](O)[C@H]1O; test: purified protein; format: biochemical, Acinetobacter baumannii; conditions: Mg2+ (HisE-like domain); Zn2+ (HisI-like domain) pyrophosphohydrolase active site in the C-terminal HisE-like domain

IC50 [1] [µM]	Molecule	Km [2] [µM]	Km [3] [µM]	kcat [3] [s⁻¹]
52 ± 4	N=c1c2ncn([C@@H]3O[C@H](COP(=O)(O)OP(=O)(O)O)[C@@H](O)[C@H]3O)c2ncn1[C@@H]1O[C@H](COP(=O)(O)O)[C@@H](O)[C@H]1O [PRADP]	–	–	–
–	phosphoribosyl-ATP pyrophosphohydrolase/phosphoribosyl-AMP cyclohydrolase (AbHisIE) (Acinetobacter baumannii) (protein, full-length AbHisIE (A. baumannii strain ATCC17978), recombinant) MNNTQWLDEVKFNEQGLIPAIAQHHQTGRILMVAWMNRESLALTAEKNQAVYFSRSRQKLWHKGEESGHFQTVYEIRLDCDGDVIVLQVEQHGGIACHTGRESCFYRKLTPQGWEIVDAQLKDPTAIYGDKAKAESHDHAHTTEQVDVLAHLGQLMQERKQAEADTSYVASLYKKGINKILEKVGEEGVETIIAAKDYAAQNTESNLNDLIYETADLWFHSIVMLGYFDLNPQLIIDELGRRQGLSGLVEKANRNKV	11	4.0 ± 0.7	5.6 ± 0.3

Source: paper PMC10242683, “Catalytic Cycle of the Bifunctional Enzyme Phosphoribosyl-ATP Pyrophosphohydrolase/Phosphoribosyl-AMP Cyclohydrolase” (ACS Catalysis, 2023)
